The series addresses 70 kDa N-terminal fragment of fibronectin.

B1: Recombinant human thioredoxin produced in E. coli (protein)
chain: MVKQIESKTAFQEALDAAGDKLVVVDFSATWCGPCKMIKPFFHSLSEKYSNVIFLEVDVDDCQDVASECEVKCMPTFQFFKKGQKVGEFSGANKEKLEATINELV
Regarding B1, the “thioredoxin-mediated reduction of the fibronectin fragment (free thiols labelled with MPB, SDS-PAGE, streptavidin peroxidase blot)” value was “thioredoxin reduced one or more protein disulfide bonds in the 70 kDa N-terminal fragment of fibronectin”.

(Values after patent US7186695.)
